Laboratory results taken from publication PMC10294656.

Target: human apolipoprotein-B mRNA-editing catalytic polypetide-like 3A protein (human) (UniProt P31941)
Assay: co-IP; HepaRG cells cotransfected with pLenti6.3-Apobec3A-V5 and pEYFP-Apobec3A, mock-infected or infected with HAdV wt (50 ffu/cell), harvested 24 and 48 hpi; whole-cell lysates; YFP-Apobec3A held on ChromoTek GFP-Trap agarose beads, V5-Apobec3A detected by Western blot; V5 signal normalised to input and β-actin

Sequence of human apolipoprotein-B mRNA-editing catalytic polypetide-like 3A protein, P31941 1-199 (enzyme; other documents disagree on this pair) (P31941 whole entry): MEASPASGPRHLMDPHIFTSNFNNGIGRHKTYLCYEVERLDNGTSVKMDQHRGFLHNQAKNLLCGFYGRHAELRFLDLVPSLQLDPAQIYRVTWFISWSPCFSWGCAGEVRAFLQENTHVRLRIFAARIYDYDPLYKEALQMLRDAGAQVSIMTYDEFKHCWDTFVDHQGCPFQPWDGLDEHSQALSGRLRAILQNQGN

## human apolipoprotein-B mRNA-editing catalytic polypetide-like 3A protein, P31941 1-199 (enzyme; other documents disagree on this pair)
  fold increase of co-precipitated V5-Apobec3A at 48 h after HAdV infection against mock: 10 fold
